Reference: paper PMC4385409

Target: cytoplasmic dynein-1 heavy chain (bovine) (bovine)
Assay: negative stain EM

stoichiometry N: 2
Substance: cytoplasmic dynein-1 heavy chain (bovine) (natural protein)
